Measurements from PMC9482650, “Quantitative fragmentomics allow affinity mapping of interactomes” (Nature Communications, 2022).

T1: PDZD7_3, Q9H5P4
T1 sequence (Q9H5P4 857-944, limits assumed, looked up): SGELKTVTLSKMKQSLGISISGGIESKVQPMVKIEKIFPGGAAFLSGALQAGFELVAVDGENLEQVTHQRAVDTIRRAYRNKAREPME

T2: GRIP1_4, Q9Y3R0
T2 sequence (Q9Y3R0 467-571, limits assumed, looked up): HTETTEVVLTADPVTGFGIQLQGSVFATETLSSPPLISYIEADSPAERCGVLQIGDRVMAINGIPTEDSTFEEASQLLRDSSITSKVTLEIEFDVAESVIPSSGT

T3: SIPA1L2, Q9P2F8
T3 sequence (Q9P2F8 945-1036, limits assumed, looked up): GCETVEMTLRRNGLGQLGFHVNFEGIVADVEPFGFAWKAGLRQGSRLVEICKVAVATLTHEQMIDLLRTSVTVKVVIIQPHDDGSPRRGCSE

T4: GRIP1_3, Q9Y3R0
T4 sequence (Q9Y3R0 247-346, limits assumed, looked up): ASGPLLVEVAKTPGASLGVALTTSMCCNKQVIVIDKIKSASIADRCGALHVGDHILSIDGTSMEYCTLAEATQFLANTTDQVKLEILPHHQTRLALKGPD

T5: PTPN13_1, Q12923
T5 sequence (Q12923 1088-1188, limits assumed, looked up): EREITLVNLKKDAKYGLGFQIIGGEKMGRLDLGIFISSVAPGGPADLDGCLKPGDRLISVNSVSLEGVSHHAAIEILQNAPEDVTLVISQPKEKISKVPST

T6: APBA2_1, Q99767
T6 sequence (Q99767 563-664, limits assumed, looked up): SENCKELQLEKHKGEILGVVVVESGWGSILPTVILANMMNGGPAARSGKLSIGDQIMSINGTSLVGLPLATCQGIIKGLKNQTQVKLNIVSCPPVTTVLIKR

T7: GRIP1_2, Q9Y3R0
T7 sequence (Q9Y3R0 145-248, limits assumed, looked up): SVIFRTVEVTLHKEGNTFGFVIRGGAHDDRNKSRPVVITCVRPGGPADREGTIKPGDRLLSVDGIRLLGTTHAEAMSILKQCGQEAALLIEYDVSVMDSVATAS

T8: LNX2_2, Q8N448
T8 sequence (Q8N448 334-432, limits assumed, looked up): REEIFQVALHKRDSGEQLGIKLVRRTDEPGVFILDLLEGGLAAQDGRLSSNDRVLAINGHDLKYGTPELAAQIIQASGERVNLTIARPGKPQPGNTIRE

T9: SNTA1, Q13424
T9 sequence (Q13424 82-180, limits assumed, looked up): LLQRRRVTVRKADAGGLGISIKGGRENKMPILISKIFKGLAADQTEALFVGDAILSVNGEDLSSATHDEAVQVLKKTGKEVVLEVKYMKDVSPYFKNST

T10: MPDZ_12, O75970
T10 sequence (O75970 1857-1958, limits assumed, looked up): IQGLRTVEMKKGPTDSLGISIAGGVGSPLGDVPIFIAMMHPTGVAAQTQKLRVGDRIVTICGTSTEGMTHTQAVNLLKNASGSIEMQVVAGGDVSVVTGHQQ

T11: ARHGEF11, O15085
T11 sequence (O15085 42-136, limits assumed, looked up): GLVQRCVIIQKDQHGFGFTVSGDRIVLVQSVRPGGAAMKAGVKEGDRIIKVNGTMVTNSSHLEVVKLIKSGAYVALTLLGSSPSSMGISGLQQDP


Columns and labels:
Assay in all cases: holdup assay
Set-up in all cases: key: below the threshold = too weak to quantify, mostly under pKd 3.1 to 4
Settings in all cases: plain residues with an end cap or a label only (N-terminal biotin on a linker: ado-ado)
LNX1_2, Q8TBB1 = target: LNX1_2, Q8TBB1
LNX1_2, Q8TBB1, sequence (Q8TBB1 371-470): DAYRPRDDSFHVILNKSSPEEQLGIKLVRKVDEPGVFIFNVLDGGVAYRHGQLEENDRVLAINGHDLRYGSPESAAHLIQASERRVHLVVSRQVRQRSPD

Inadl_4, Q8NI35 = target: Inadl_4, Q8NI35
Inadl_4, Q8NI35, sequence (Q8NI35 547-651): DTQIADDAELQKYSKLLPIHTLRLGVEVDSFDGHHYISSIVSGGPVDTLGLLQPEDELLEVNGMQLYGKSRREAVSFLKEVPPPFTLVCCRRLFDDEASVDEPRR

GRIP2_7, Q9C0E4 = target: GRIP2_7, Q9C0E4
GRIP2_7, Q9C0E4, sequence (Q9C0E4 934-1023): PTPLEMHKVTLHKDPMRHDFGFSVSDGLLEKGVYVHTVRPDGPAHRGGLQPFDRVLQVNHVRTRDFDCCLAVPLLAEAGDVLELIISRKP

PDZD7_3, Q9H5P4 = target: T1, PDZD7_3, Q9H5P4
GOPC, Q9HD26 = target: GOPC, Q9HD26
PDLIM1, O00151 = target: PDLIM1, O00151
PDLIM1, O00151, sequence (O00151 1-87): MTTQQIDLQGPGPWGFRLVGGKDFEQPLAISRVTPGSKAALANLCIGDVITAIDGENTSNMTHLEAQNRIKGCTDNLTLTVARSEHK

Inadl_3, Q8NI35 = target: Inadl_3, Q8NI35
Inadl_3, Q8NI35, sequence (Q8NI35 359-469): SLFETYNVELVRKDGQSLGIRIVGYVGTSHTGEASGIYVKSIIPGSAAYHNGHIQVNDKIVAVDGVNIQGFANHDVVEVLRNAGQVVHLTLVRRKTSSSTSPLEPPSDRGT

MAST2, Q6P0Q8 = target: MAST2, Q6P0Q8
MAST2, Q6P0Q8, sequence (Q6P0Q8 1099-1202): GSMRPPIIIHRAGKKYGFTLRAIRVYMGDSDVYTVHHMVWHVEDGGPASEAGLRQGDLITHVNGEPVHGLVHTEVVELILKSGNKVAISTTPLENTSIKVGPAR

Inadl_1, Q8NI35 = target: Inadl_1, Q8NI35
Inadl_1, Q8NI35, sequence (Q8NI35 113-229): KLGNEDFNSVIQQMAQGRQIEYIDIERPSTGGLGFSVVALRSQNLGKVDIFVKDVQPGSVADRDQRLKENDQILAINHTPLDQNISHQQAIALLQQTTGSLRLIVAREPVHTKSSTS

LDB3, O75112 = target: LDB3, O75112
LDB3, O75112, sequence (O75112 1-94): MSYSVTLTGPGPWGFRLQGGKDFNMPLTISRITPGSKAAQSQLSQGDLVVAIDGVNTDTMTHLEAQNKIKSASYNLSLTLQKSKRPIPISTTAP

GRIP1_4, Q9Y3R0 = target: T2, GRIP1_4, Q9Y3R0
PICK1, Q9NRD5 = target: PICK1, Q9NRD5
PICK1, Q9NRD5, sequence (Q9NRD5 17-115): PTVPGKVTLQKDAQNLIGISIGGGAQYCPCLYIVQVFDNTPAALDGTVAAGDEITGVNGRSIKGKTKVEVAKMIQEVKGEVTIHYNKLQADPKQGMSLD

SIPA1L2, Q9P2F8 = target: T3, SIPA1L2, Q9P2F8
GRIP1_3, Q9Y3R0 = target: T4, GRIP1_3, Q9Y3R0
ARHGEF12, Q9NZN5-2 = target: ARHGEF12, Q9NZN5-2
ARHGEF12, Q9NZN5-2, sequence (Q9NZN5 other isoform, or with tags, fused parts or gaps): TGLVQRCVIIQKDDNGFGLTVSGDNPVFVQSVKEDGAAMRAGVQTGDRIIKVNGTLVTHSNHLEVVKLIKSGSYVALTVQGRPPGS

PTPN13_1, Q12923 = target: T5, PTPN13_1, Q12923
SCRIB_1, Q14160 = target: SCRIB_1, Q14160
SCRIB_1, Q14160, sequence (Q14160 718-814): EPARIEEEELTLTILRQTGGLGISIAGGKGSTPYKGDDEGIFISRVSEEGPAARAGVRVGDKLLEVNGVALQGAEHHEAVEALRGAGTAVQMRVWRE

APBA2_1, Q99767 = target: T6, APBA2_1, Q99767
HTRA2, O43464 = target: HTRA2, O43464
HTRA2, O43464, sequence (O43464 355-458): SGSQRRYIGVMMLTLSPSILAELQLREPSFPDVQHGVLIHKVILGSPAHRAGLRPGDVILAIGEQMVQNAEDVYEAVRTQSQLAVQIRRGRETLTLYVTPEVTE

GRIP1_2, Q9Y3R0 = target: T7, GRIP1_2, Q9Y3R0
LNX2_2, Q8N448 = target: T8, LNX2_2, Q8N448
DLG2_3, Q15700 = target: DLG2_3, Q15700
SNTA1, Q13424 = target: T9, SNTA1, Q13424
MPDZ_12, O75970 = target: T10, MPDZ_12, O75970
GIPC2, Q8TF65 = target: GIPC2, Q8TF65
GIPC2, Q8TF65, sequence (Q8TF65 112-203): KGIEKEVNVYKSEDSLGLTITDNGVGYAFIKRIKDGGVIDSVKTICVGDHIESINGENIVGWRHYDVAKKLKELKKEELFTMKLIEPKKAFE

ARHGEF11, O15085 = target: T11, ARHGEF11, O15085
DLG2_2, Q15700 = target: DLG2_2, Q15700

Row | Binder | pKd (LNX1_2, Q8TBB1) | pKd (Inadl_4, Q8NI35) | pKd (GRIP2_7, Q9C0E4) | pKd (PDZD7_3, Q9H5P4) | pKd (GOPC, Q9HD26) | pKd (PDLIM1, O00151) | pKd (Inadl_3, Q8NI35) | pKd (MAST2, Q6P0Q8) | pKd (Inadl_1, Q8NI35) | pKd (LDB3, O75112) | pKd (GRIP1_4, Q9Y3R0) | pKd (PICK1, Q9NRD5) | pKd (SIPA1L2, Q9P2F8) | pKd (GRIP1_3, Q9Y3R0) | pKd (ARHGEF12, Q9NZN5-2) | pKd (PTPN13_1, Q12923) | pKd (SCRIB_1, Q14160) | pKd (APBA2_1, Q99767) | pKd (HTRA2, O43464) | pKd (GRIP1_2, Q9Y3R0) | other results
1 | SPDRDRESIV [SCN5A, Q14524] | below the threshold | below the threshold | below the threshold | 4.63 | 3.7 | below the threshold | 3.56 | 4.53 | below the threshold | below the threshold | below the threshold | 4.21 | below the threshold | below the threshold | below the threshold | below the threshold | 3.57 | below the threshold | below the threshold | below the threshold | pKd (LNX2_2, Q8N448): 4.44; pKd (DLG2_3, Q15700): below the threshold; pKd (SNTA1, Q13424): 6.16; pKd (MPDZ_12, O75970): below the threshold; pKd (GIPC2, Q8TF65): 4.06; pKd (ARHGEF11, O15085): 3.51; pKd (DLG2_2, Q15700): 4.58
2 | PPGKHLVTEV [KCNA7, Q96RP8] | 3.53 | below the threshold | below the threshold | 5.2 | 3.68 | below the threshold | 3.7 | 5.21 | below the threshold | below the threshold | below the threshold | below the threshold | below the threshold | below the threshold | 5.22 | below the threshold | 4.72 | below the threshold | below the threshold | below the threshold | pKd (LNX2_2, Q8N448): 4.91; pKd (DLG2_3, Q15700): 4.71; pKd (SNTA1, Q13424): 3.95; pKd (MPDZ_12, O75970): 3.88; pKd (GIPC2, Q8TF65): below the threshold; pKd (ARHGEF11, O15085): 5.2; pKd (DLG2_2, Q15700): 5.01
3 | ARESQKVSHV [FAM110B, Q8TC76] | below the threshold | below the threshold | below the threshold | 4.63 | 3.98 | below the threshold | below the threshold | 4.76 | below the threshold | below the threshold | below the threshold | below the threshold | below the threshold | below the threshold | 4.58 | below the threshold | 3.74 | below the threshold | below the threshold | below the threshold | pKd (LNX2_2, Q8N448): 4; pKd (DLG2_3, Q15700): 3.62; pKd (SNTA1, Q13424): 4.25; pKd (MPDZ_12, O75970): below the threshold; pKd (GIPC2, Q8TF65): below the threshold; pKd (ARHGEF11, O15085): 4.19; pKd (DLG2_2, Q15700): 4.24
4 | TNSRHGETTV [FZD2, Q14332] | 3.78 | below the threshold | below the threshold | 4.26 | 3.88 | below the threshold | 3.51 | 5.05 | below the threshold | below the threshold | below the threshold | below the threshold | below the threshold | below the threshold | 3.57 | below the threshold | 4.25 | below the threshold | below the threshold | below the threshold | pKd (LNX2_2, Q8N448): 4.83; pKd (DLG2_3, Q15700): 4.38; pKd (SNTA1, Q13424): 4.64; pKd (MPDZ_12, O75970): below the threshold; pKd (GIPC2, Q8TF65): 4.22; pKd (ARHGEF11, O15085): 4.07; pKd (DLG2_2, Q15700): 4.81
